Eight molecules from patent US20230056252A1 (Gilead, published 2023) can be followed below.

In general, Kd refers to the constant that tells how readily two partners part at equilibrium. Low readings indicate tighter binding, high ones weaker binding. A word on the koff: it is the rate constant with which the complex falls apart. For orientation: kon means a measure of how fast the partners come together. The low end stands for slow association, the high end for fast association. Broadly, the IC50 is the point on the concentration scale where inhibition reaches its midpoint.

Assay [1] has as its target T1, biotinylated Human CD3E and CD3D (Acro Biosystems Cat CDD-H82W1) (human, UniProt P07766 23-126; P04234 22-105).
T1 construct: also called biotinylated CD3
Description: SPR (Biacore 4000), CD3 captured on streptavidin chip.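 Further: bispecific antibodies or Fabs injected at several concentrations over CD3 surfaces of varying density, sensorgrams fitted with a simple kinetic model to obtain association, dissociation and equilibrium constants.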

In assay [2] the target is T2, CD3 expressed on cell-surface of primary human T cells (human, UniProt P07766 23-207; P04234 22-171).
T2 construct: also called cell-surface CD3; human CD3
In words: flow cytometry competition vs murine SP34-AF488 on human T cells, n = 1. For orientation: Flow cytometry measures light scatter and fluorescence of single cells or particles in a stream.

B1: hCD4D1.22 Fc AAS + W + YTE/huSP34.39.13 AAS + SAV + R (bispecific antibody, human IgG1, lambda, L234A L235A)
chain: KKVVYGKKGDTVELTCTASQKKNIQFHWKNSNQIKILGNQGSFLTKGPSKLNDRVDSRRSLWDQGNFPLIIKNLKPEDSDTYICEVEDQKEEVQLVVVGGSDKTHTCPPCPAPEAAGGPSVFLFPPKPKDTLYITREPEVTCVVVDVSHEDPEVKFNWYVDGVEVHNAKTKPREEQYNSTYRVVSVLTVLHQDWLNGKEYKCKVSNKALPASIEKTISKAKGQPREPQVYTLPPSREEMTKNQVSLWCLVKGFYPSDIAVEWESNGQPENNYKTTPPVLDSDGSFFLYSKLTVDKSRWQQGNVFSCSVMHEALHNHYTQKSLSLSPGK
heavy: EVQLVESGGGLVQPGGSLRLSCAASGFTFNTYAMNWVRQAPGKGLEWVGRIRSKYNNYATYYADSVKSRFTISRDDSKNSLYLEMNSLRTEDTAVYYCVRHGNFGHSYVSWFAYWGQGTLVTVSSASTKGPSVFPLAPSSKSTSGGTAALGCLVKDYFPEPVTVSWNSGALTSGVHTFPAVLQSSGLYSLSSVVTVPSSSLGTQTYICNVNHKPSNTKVDKKVEPKSCDKTHTCPPCPAPEAAGGPSVFLFPPKPKDTLMISRTPEVTCVVVDVSHEDPEVKFNWYVDGVEVHNAKTKPREEQYNSTYRVVSVLTVLHQDWLNGKEYKCKVSNKALPASIEKTISKAKGQPREPQVYTLPPSREEMTKNQVSLSCAVKGFYPSDIAVEWESNGQPENNYKTTPPVLDSDGSFFLVSKLTVDKSRWQQGNVFSCSVMHEALHNRYTQKSLSLSPGK
light: QAVVTQEPSLTVSPGGTVTLTCGSSTGAVTTGHYANWVQQKPGQAPRGLIGGTSNRAPGVPARFSGSLLGGKAALTISGAQPEDEAEYYCALWYSNRWVFGGGTKLTVLGQPKAAPSVTLFPPSSEELQANKATLVCLISDFYPGAVTVAWKADSSPVKAGVETTTPSKQSNNKYAASSYLSLTPEQWKSHRSYSCQVTHEGSTVEKTVAPTECS
notes: also called 180; bispecific 180
With B1, in assay [1], the dissociation constant Kd turned out to be 2.5 nM, the koff was determined as 0.0049 s⁻¹ and the kon was 2e+06 M⁻¹ s⁻¹.

B2: hPGT121.66 AAS + W/huSP34.40.13 scFv AAS + SAV + R (bispecific antibody, human IgG1, lambda, L234A L235A)
chain: EVQLVESGGGLVQPGGSLRLSCAASGFTFNTYAMNWVRQAPGKGLEWVGRIRSKYNNYAAYYADSVKSRFTISRDDSKNSLYLQMNSLRTEDTAVYYCVRHGNFGHSYVSWFAYWGQGTLVTVSSGGGGSGGGGSGGGGSGGGGSQAVVTQEPSLTVSPGGTVTLTCGSSTGAVTTGHYANWVQQKPGQAPRGLIGGTSNRAPGVPARFSGSLLGGKAALTISGAQPEDEAEYYCALWYSNRWVFGGGTKLTVLEPKSSDKTHTCPPCPAPEAAGGPSVFLFPPKPKDTLMISRTPEVTCVVVDVSHEDPEVKFNWYVDGVEVHNAKTKPREEQYNSTYRVVSVLTVLHQDWLNGKEYKCKVSNKALPASIEKTISKAKGQPREPQVYTLPPSREEMTKNQVSLSCAVKGFYPSDIAVEWESNGQPENNYKTTPPVLDSDGSFFLVSKLTVDKSRWQQGNVFSCSVMHEALHNRYTQKSLSLSPGK
heavy: QMQLQESGPGLVKPSETLSLTCSVSGASISDSYWSWIRRSPGKGLEWIGYVHKSGDTNYNPSLKSRVHLSLDTSKNQVSLSLTGVTAADSGKYYCARTLHGRRIYGIVAFNEWFTYFYMDVWGTGTQVTVSSASTKGPSVFPLAPSSKSTSGGTAALGCLVKDYFPEPVTVSWNSGALTSGVHTFPAVLQSSGLYSLSSVVTVPSSSLGTQTYICNVNHKPSNTKVDKKVEPKSCDKTHTCPPCPAPEAAGGPSVFLFPPKPKDTLMISRTPEVTCVVVDVSHEDPEVKFNWYVDGVEVHNAKTKPREEQYNSTYRVVSVLTVLHQDWLNGKEYKCKVSNKALPASIEKTISKAKGQPREPQVYTLPPSREEMTKNQVSLWCLVKGFYPSDIAVEWESNGQPENNYKTTPPVLDSDGSFFLYSKLTVDKSRWQQGNVFSCSVMHEALHNHYTQKSLSLSPGK
light: not shown
notes: also called 276; bispecific 276
Turning to B2, in assay [1], binding was characterised by a dissociation constant (Kd) of 1.8 nM, the off-rate constant (koff) amounted to 0.0063 s⁻¹ and the association rate constant (kon) was 3.6e+06 M⁻¹ s⁻¹.

B3: h3BNC117.52.64 AAS + SAV + YTE/huSP34.3.13 scFv AAS + W + YTE (bispecific antibody, human IgG1, kappa, L234A L235A)
chain: EVQLVESGGGLVQPGGSLRLSCAASGFTFNTYAMNWVRQAPGKGLEWVGRIRSKYNNYATYYADSVKGRFTISRDDSKNSLYLQMNSLRTEDTAVYYCVRHGNFGHSYVSWFAYWGQGTLVTVSSGGGGSGGGGSGGGGSGGGGSQAVVTQEPSLTVSPGGTVTLTCGSSTGAVTTGHYANWVQQKPGQAPRGLIGGTSNRAPGVPARFSGSLLGGKAALTISGAQPEDEAEYYCALWYSNRWVFGGGTKLTVLEPKSSDKTHTCPPCPAPEAAGGPSVFLFPPKPKDTLYITREPEVTCVVVDVSHEDPEVKFNWYVDGVEVHNAKTKPREEQYNSTYRVVSVLTVLHQDWLNGKEYKCKVSNKALPASIEKTISKAKGQPREPQVYTLPPSREEMTKNQVSLWCLVKGFYPSDIAVEWESNGQPENNYKTTPPVLDSDGSFFLYSKLTVDKSRWQQGNVFSCSVMHEALHNHYTQKSLSLSPGK
heavy: QVQLLQSGAAVTKPGASVRVSCEASGYNIRDYFIHWWRQAPGQGLQWVGWINPKTGQPNNPRQFQGRVSLTRHASFDFDTFSFYMDLKALRSDDTAVYFCARQRSDYWDFDVWGSGTQVTVSSASTKGPSVFPLAPSSKSTSGGTAALGCLVKDYFPEPVTVSWNSGALTSGVHTFPAVLQSSGLYSLSSVVTVPSSSLGTQTYICNVNHKPSNTKVDKKVEPKSCDKTHTCPPCPAPEAAGGPSVFLFPPKPKDTLYITREPEVTCVVVDVSHEDPEVKFNWYVDGVEVHNAKTKPREEQYNSTYRVVSVLTVLHQDWLNGKEYKCKVSNKALPASIEKTISKAKGQPREPQVYTLPPSREEMTKNQVSLSCAVKGFYPSDIAVEWESNGQPENNYKTTPPVLDSDGSFFLVSKLTVDKSRWQQGNVFSCSVMHEALHNHYTQKSLSLSPGK
light: DIQMTQSPSSLSASVGDTATITCQANGYLNWYQQRRGKAPKLLIYDGSKLERGVPSRFSGRRWGQEYNLTINNLQPEDIATYFCQVYEFVVPGTRLDLKRTVAAPSVFIFPPSDEQLKSGTASVVCLLNNFYPREAKVQWKVDNALQSGNSQESVTEQDSKDSTYSLSSTLTLSKADYEKHKVYACEVTHQGLSSPVTKSFNRGEC
B3: in assay [1], the Kd came to 2.7 nM, the koff came out at 0.0087 s⁻¹ and the kon was 3.3e+06 M⁻¹ s⁻¹.

B4: hPGT121.66 AAS W/huSP34.39.13 scFv AAS + SAV + R (bispecific antibody, human IgG1, lambda, L234A L235A)
chain: EVQLVESGGGLVQPGGSLRLSCAASGFTFNTYAMNWVRQAPGKGLEWVGRIRSKYNNYATYYADSVKSRFTISRDDSKNSLYLEMNSLRTEDTAVYYCVRHGNFGHSYVSWFAYWGQGTLVTVSSGGGGSGGGGSGGGGSGGGGSQAVVTQEPSLTVSPGGTVTLTCGSSTGAVTTGHYANWVQQKPGQAPRGLIGGTSNRAPGVPARFSGSLLGGKAALTISGAQPEDEAEYYCALWYSNRWVFGGGTKLTVLEPKSSDKTHTCPPCPAPEAAGGPSVFLFPPKPKDTLMISRTPEVTCVVVDVSHEDPEVKFNWYVDGVEVHNAKTKPREEQYNSTYRVVSVLTVLHQDWLNGKEYKCKVSNKALPASIEKTISKAKGQPREPQVYTLPPSREEMTKNQVSLSCAVKGFYPSDIAVEWESNGQPENNYKTTPPVLDSDGSFFLVSKLTVDKSRWQQGNVFSCSVMHEALHNRYTQKSLSLSPGK
heavy: QMQLQESGPGLVKPSETLSLTCSVSGASISDSYWSWIRRSPGKGLEWIGYVHKSGDTNYNPSLKSRVHLSLDTSKNQVSLSLTGVTAADSGKYYCARTLHGRRIYGIVAFNEWFTYFYMDVWGTGTQVTVSSASTKGPSVFPLAPSSKSTSGGTAALGCLVKDYFPEPVTVSWNSGALTSGVHTFPAVLQSSGLYSLSSVVTVPSSSLGTQTYICNVNHKPSNTKVDKKVEPKSCDKTHTCPPCPAPEAAGGPSVFLFPPKPKDTLMISRTPEVTCVVVDVSHEDPEVKFNWYVDGVEVHNAKTKPREEQYNSTYRVVSVLTVLHQDWLNGKEYKCKVSNKALPASIEKTISKAKGQPREPQVYTLPPSREEMTKNQVSLWCLVKGFYPSDIAVEWESNGQPENNYKTTPPVLDSDGSFFLYSKLTVDKSRWQQGNVFSCSVMHEALHNHYTQKSLSLSPGK
light: not shown
In assay [1], B4 came in with a Kd of 2.6 nM, a koff of 0.009 s⁻¹ and a kon of 3.4e+06 M⁻¹ s⁻¹.

B5: hPGT121.66 AAS + W/huSP34.41.13 scFv AAS + SAV + R (bispecific antibody, human IgG1, lambda, L234A L235A)
chain: EVQLVESGGGLVQPGGSLSLSCAASGFTFNTYAMNWVRQAPGKGLEWVGRIRSKYNNYATYYADSVKSRFTISRDDSKNSLYLQMNSLRTEDTAVYYCVRHGNFGHSYVSWFAYWGQGTLVTVSSGGGGSGGGGSGGGGSGGGGSQAVVTQEPSLTVSPGGTVTLTCGSSTGAVTTGHYANWVQQKPGQAPRGLIGGTSNRAPGVPARFSGSLLGGKAALTISGAQPEDEAEYYCALWYSNRWVFGGGTKLTVLEPKSSDKTHTCPPCPAPEAAGGPSVFLFPPKPKDTLMISRTPEVTCVVVDVSHEDPEVKFNWYVDGVEVHNAKTKPREEQYNSTYRVVSVLTVLHQDWLNGKEYKCKVSNKALPASIEKTISKAKGQPREPQVYTLPPSREEMTKNQVSLSCAVKGFYPSDIAVEWESNGQPENNYKTTPPVLDSDGSFFLVSKLTVDKSRWQQGNVFSCSVMHEALHNRYTQKSLSLSPGK
heavy: QMQLQESGPGLVKPSETLSLTCSVSGASISDSYWSWIRRSPGKGLEWIGYVHKSGDTNYNPSLKSRVHLSLDTSKNQVSLSLTGVTAADSGKYYCARTLHGRRIYGIVAFNEWFTYFYMDVWGTGTQVTVSSASTKGPSVFPLAPSSKSTSGGTAALGCLVKDYFPEPVTVSWNSGALTSGVHTFPAVLQSSGLYSLSSVVTVPSSSLGTQTYICNVNHKPSNTKVDKKVEPKSCDKTHTCPPCPAPEAAGGPSVFLFPPKPKDTLMISRTPEVTCVVVDVSHEDPEVKFNWYVDGVEVHNAKTKPREEQYNSTYRVVSVLTVLHQDWLNGKEYKCKVSNKALPASIEKTISKAKGQPREPQVYTLPPSREEMTKNQVSLWCLVKGFYPSDIAVEWESNGQPENNYKTTPPVLDSDGSFFLYSKLTVDKSRWQQGNVFSCSVMHEALHNHYTQKSLSLSPGK
light: not shown
For the molecule B5, in assay [1], the Kd stood at 2.8 nM, the koff was 0.0085 s⁻¹ and the kon was 3e+06 M⁻¹ s⁻¹.

B6: huSP34.7.6 Fab-HF (Fab, V domains shown)
VH: EVQLVESGGGLVQPGGSLRLSCAASGFTFSDYAMNWVRQAPGKGLEWVGRTRSKYNNYATYYAASVKGRFTISRDDSKNSLYLQMNSLKTEDTAVYYCVRHGNFGNSYVSWFAVWGQGTLVTVSS
VL: QAVVTQPPSLTVSPGGTVTLTCGSSTGAVTTGHYANWVQQKPGQAPRGLIGGTSNRAPGVPARFSGSLSGGKAALTISGAQPEDEAEYYCALWYSARWVFGGGTKLTVL
B6: in assay [2], the IC50 is more than 20 µg/mL.

B7: huSP34.10.6 Fab-HF (Fab, V domains shown)
VH: EVQLVESGGGLVQPGGSLRLSCAASGFTFSDYAMNWVRQAPGKGLEWVGRTRSKYNSYATYYAASVKGRFTISRDDSKNSLYLQMNSLKTEDTAVYYCVRHGNFGHSYVSWFAVWGQGTLVTVSS
VL: QAVVTQPPSLTVSPGGTVTLTCGSSTGAVTTGHYANWVQQKPGQAPRGLIGGTSNRAPGVPARFSGSLSGGKAALTISGAQPEDEAEYYCALWYSARWVFGGGTKLTVL
Consider B7, for which the IC50 in assay [2] is more than 20 µg/mL.

B8: huSP34.9.6 Fab-HF (Fab, V domains shown)
VH: EVQLVESGGGLVQPGGSLRLSCAASGFTFSDYAMNWVRQAPGKGLEWVGRTRSKYNSYATYYAASVKGRFTISRDDSKNSLYLQMNSLKTEDTAVYYCVRHGNFGNSYVSWFAVWGQGTLVTVSS
VL: QAVVTQPPSLTVSPGGTVTLTCGSSTGAVTTGHYANWVQQKPGQAPRGLIGGTSNRAPGVPARFSGSLSGGKAALTISGAQPEDEAEYYCALWYSARWVFGGGTKLTVL
Turning to B8, the IC50 in assay [2] was more than 20 µg/mL.
